In the supplement of paper PMC10724198:
± gives the standard deviation of the averaged measurements.

Columns and labels:
[1] = test system: Saccharomyces cerevisiae; experiment: protein stability index of tFT-peptide fusion in wild type (PSI (0-1 scale)); higher = more stable (slower turnover); settings: genetic background: wild type
Protocol: (§1)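 MPS profiling in S. cerevisiae of two library types built from selected 12-aa C-degron peptides (IN1, IN2, LN1, LN3, VN2, R1-R5, W1-W3, Atg1 and Rpa12 C-termini): saturation mutagenesis libraries and C-terminal +1 capping libraries (13 aa). Each peptide is fused to the C-terminus of a sfGFP-mCherry timer, after a GGGS linker. Cells are FACS-sorted into 8 mCherry/sfGFP bins and sequenced. PSI runs from 0 (unstable) to 1 (stable), measured once in wild type and in the das1Δ or doa10Δ background.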

[2] = test system: Saccharomyces cerevisiae; experiment: protein stability index of tFT-peptide fusion in deletion strain of DAS1 (PSI (0-1 scale)); higher = more stable (slower turnover)
Protocol: as §1

[3] = test system: Saccharomyces cerevisiae; experiment: protein stability index of tFT-peptide fusion (C-terminal peptide) (PSI (0-1 scale)); higher = more stable (slower turnover); settings: temperature: 30 C
Protocol: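 MPS profiling in S. cerevisiae of the yeast C-terminome library: the last 12 aa of each annotated ORF are fused to the C-terminus of a sfGFP-mCherry timer, after a GGGS linker. Cells are FACS-sorted into 8 mCherry/sfGFP bins and deep-sequenced. PSI runs from 0 (unstable) to 1 (stable); wild type and das1Δ backgrounds, two technical replicates each.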

[4] = genetic background: das1 deletion
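Wherever protein stability index of tFT-peptide fusion in deletion strain of DAS1 is given: PSI is a weighted mean of each variant's read distribution over the sorted stability bins, computed only for variants having over 10 reads in total.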
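Wherever protein stability index of tFT-peptide fusion in wild type is given: PSI derived as read-weighted mean over the 8 sorting bins, only variants exceeding 10 total reads kept, mCherry placed adjacent to the peptide and sfGFP distal.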

| Sequence | protein stability index [1] | protein stability index [2] | protein stability index [3, 4] | protein stability index ([3]; genetic background: wild type) |
| --- | --- | --- | --- | --- |
| PSLAASFWRVVGL | 0.683 | 0.713 |  |  |
| VRGAVGGWRLCG | 0.239 | 0.676 |  |  |
| RDIQPLPVQFLN | 0.0918 | 0.596 |  |  |
| VRGAVGGWRLVQ | 0.24 | 0.684 |  |  |
| LVVYSSCVACIN | 0.0132 | 0.0458 |  |  |
| LKILRQKMNHQA | 0.19 | 0.629 |  |  |
| KRQGRTLYGFGG [YBR009C; YNL030W C-terminal 12 aa] |  |  | 0.7013 ± 0.0062 | 0.693 ± 0.021 |
| EAGDSDILTTLA [RPL30 C-terminal 12 aa] |  |  | 0.706 ± 0.024 | 0.687 ± 0.0078 |
| TKKANILDPDYL [FLC1 C-terminal 12 aa] |  |  | 0.685 ± 0.023 | 0.728 ± 0.032 |
| THLQQVAVSGQA [SEC23 C-terminal 12 aa] |  |  | 0.572 ± 0.0092 | 0.618 ± 0.014 |
| STDQLPELSFEV [TVP38 C-terminal 12 aa] |  |  | 0.699 ± 0.013 | 0.722 ± 0.0051 |
| EVAKSLTLQYDV [CNB1 C-terminal 12 aa] |  |  | 0.699 ± 0.0073 | 0.68 ± 0.015 |
| GESSINSSTRHA [CTK2 C-terminal 12 aa] |  |  | 0.683 ± 0.015 | 0.6853 ± 0.0058 |
| ISLLSQFVYKGK [EXO1 C-terminal 12 aa] |  |  | 0.7 ± 0.016 | 0.678 ± 0.01 |
| LHTLYLRPASAI [SSN8 C-terminal 12 aa] |  |  | 0.701 ± 0.021 | 0.669 ± 0.03 |
| CCCFLLELVCDN [YDR210W C-terminal 12 aa] |  |  | 0.512 ± 0.013 | 0.523 ± 0.018 |
| KKGLTRSVKFKN [SAS10 C-terminal 12 aa] |  |  | 0.708 ± 0.044 | 0.667 ± 0.017 |
| GKSHPFHSSDRY [YJL211C C-terminal 12 aa] |  |  | 0.6884 ± 0.0033 | 0.699 ± 0.023 |
| AMYDKITESQKK [CHD1 C-terminal 12 aa] |  |  | 0.714 ± 0.027 | 0.683 ± 0.0096 |
| ELSDLENKLGKK [RCF1 C-terminal 12 aa] |  |  | 0.6843 ± 0.0062 | 0.6991 ± 0.0033 |
| AYECAKHFLMKN [MRS4 C-terminal 12 aa] |  |  | 0.7061 ± 0.0038 | 0.5284 ± 0.0001 |
| KSLWDYVKKNTE [TAF14 C-terminal 12 aa] |  |  | 0.689 ± 0.046 | 0.712 ± 0.019 |
| DLIESTFRSITQ [PAN3 C-terminal 12 aa] |  |  | 0.7194 ± 0.0067 | 0.7049 ± 0.0029 |
| IRRYPFLWIPFL [YMR316C-B C-terminal 12 aa] |  |  | 0.709 ± 0.04 | 0.147 ± 0.015 |
| GTFPRNERYYHK [PHA2 C-terminal 12 aa] |  |  | 0.71 ± 0.0099 | 0.78 ± 0.021 |
| DLEGVLWRSYYA [BLM10 C-terminal 12 aa] |  |  | 0.744 ± 0.008 | 0.711 ± 0.0089 |
| KRHLTPAVELDY [PRP40 C-terminal 12 aa] |  |  | 0.671 ± 0.008 | 0.6566 ± 0.001 |

| Sequence | protein stability index [1] | protein stability index [2] | protein stability index [3, 4] | protein stability index ([3]; genetic background: wild type) |
| --- | --- | --- | --- | --- |
| WYLQSVNLRDGV [HOL1 C-terminal 12 aa] |  |  | 0.6852 ± 0.005 | 0.688 ± 0.035 |
| YLVHNNADEKSN [CUZ1 C-terminal 12 aa] |  |  | 0.704 ± 0.034 | 0.695 ± 0.05 |
| ENNEKFLNIRLY [CDC24 C-terminal 12 aa] |  |  | 0.71 ± 0.026 | 0.668 ± 0.013 |
| PSYAKVQEFATP [NEO1 C-terminal 12 aa] |  |  | 0.71 ± 0.0097 | 0.684 ± 0.0059 |
| TKCSLKNSISLT [VAB2 C-terminal 12 aa] |  |  | 0.677 ± 0.012 | 0.733 ± 0.086 |
| SAMTSKVLSFFL [RRT7 C-terminal 12 aa] |  |  | 0.7094 ± 0.0069 | 0.696 ± 0.019 |
| IIFGHDNLWTVR [ALG7 C-terminal 12 aa] |  |  | 0.742 ± 0.022 | 0.767 ± 0.041 |
| VEGKNAAASGSA [LEU4 C-terminal 12 aa] |  |  | 0.7086 ± 0.0054 | 0.682 ± 0.013 |
| IKAAIDRVDHSL [YKR018C C-terminal 12 aa] |  |  | 0.6778 ± 0.0045 | 0.692 ± 0.041 |
| LHMNTNRLAGIR [SEC9 C-terminal 12 aa] |  |  | 0.7133 ± 0.0013 | 0.718 ± 0.018 |
| VQNWKPKPFGVL [LAS1 C-terminal 12 aa] |  |  | 0.707 ± 0.015 | 0.737 ± 0.059 |
| DSFIPLQPKKKI [YML037C C-terminal 12 aa] |  |  | 0.684 ± 0.05 | 0.684 ± 0.015 |
| VDAKIKKQMNRH [YJR124C C-terminal 12 aa] |  |  | 0.694 ± 0.011 | 0.682 ± 0.0093 |
| SNRILALGYILL [ATG32 C-terminal 12 aa] |  |  | 0.669 ± 0.0077 | 0.658 ± 0.0079 |
| ARMTGETPVAKH [YHM2 C-terminal 12 aa] |  |  | 0.688 ± 0.033 | 0.677 ± 0.016 |
| QSSHFGQVDEII [DUR3 C-terminal 12 aa] |  |  | 0.684 ± 0.046 | 0.726 ± 0.04 |
| YAWTRGLTNPIC [FEX1 C-terminal 12 aa] |  |  | 0.69727 ± 0.00064 | 0.69 ± 0.0087 |
| NTAKATYDLYTN [GPI8 C-terminal 12 aa] |  |  | 0.686 ± 0.012 | 0.6703 ± 0.0046 |
| LETDQDFLDGLL [YER034W C-terminal 12 aa] |  |  | 0.708 ± 0.021 | 0.695 ± 0.0081 |
| LKALANETMSRI [VPS16 C-terminal 12 aa] |  |  | 0.712 ± 0.011 | 0.706 ± 0.049 |
| EIAADDTKKQEK [SOK2 C-terminal 12 aa] |  |  | 0.672 ± 0.027 | 0.684 ± 0.074 |
| TKSIFPSVNPSA [GPB2 C-terminal 12 aa] |  |  | 0.694 ± 0.02 | 0.669 ± 0.019 |
| ATEITPLLNIAE [VLD1 C-terminal 12 aa] |  |  | 0.674 ± 0.018 | 0.773 ± 0.033 |
| YVFIVNHAAEQT [NUP116 C-terminal 12 aa] |  |  | 0.677 ± 0.024 | 0.659 ± 0.009 |
| FPQLNGLLRLQH [YPR014C C-terminal 12 aa] |  |  | 0.698 ± 0.015 | 0.681 ± 0.028 |
| EHTILSDSDETH [RIM15 C-terminal 12 aa] |  |  | 0.71 ± 0.012 | 0.717 ± 0.022 |
| ISQWREWIDEKL [SRP102 C-terminal 12 aa] |  |  | 0.679 ± 0.025 | 0.72 ± 0.029 |

| Sequence | protein stability index [1] | protein stability index [2] | protein stability index [3, 4] | protein stability index ([3]; genetic background: wild type) |
| --- | --- | --- | --- | --- |
| HQVERKAVDIVL [YPR096C C-terminal 12 aa] |  |  | 0.691 ± 0.016 | 0.712 ± 0.09 |
| TEFEKIHRNTFN [REX4 C-terminal 12 aa] |  |  | 0.706 ± 0.012 | 0.723 ± 0.033 |
| QKAKLNKLDSKK [NOP7 C-terminal 12 aa] |  |  | 0.677 ± 0.0057 | 0.704 ± 0.068 |
| ISKKVFGNKLHQ [MTM1 C-terminal 12 aa] |  |  | 0.709 ± 0.0014 | 0.656 ± 0.022 |
| QLQMILFGKKFK [PET9 C-terminal 12 aa] |  |  | 0.711 ± 0.016 | 0.701 ± 0.021 |
| IKLNKKKVKLST [HHO1 C-terminal 12 aa] |  |  | 0.664 ± 0.0086 | 0.6099 ± 0.0033 |
| ALEEALMDRLQF [ATG29 C-terminal 12 aa] |  |  | 0.7094 ± 0.0057 | 0.6947 ± 0.0064 |
| GFRPAGATRFYS [YHR086W-A C-terminal 12 aa] |  |  | 0.6965 ± 0.0029 | 0.691 ± 0.016 |
| SKFTGRKRRHRF [BUD23 C-terminal 12 aa] |  |  | 0.67693 ± 0.00035 | 0.711 ± 0.05 |
| DDPDENTALLGA [YDR338C C-terminal 12 aa] |  |  | 0.7076 ± 0.0037 | 0.711 ± 0.034 |
| EWSFASSGYKDD [PPN1 C-terminal 12 aa] |  |  | 0.7115 ± 0.0032 | 0.794 ± 0.041 |
| RKFFSMRSLNSR [CHL1 C-terminal 12 aa] |  |  | 0.696 ± 0.014 | 0.6589 ± 0.0015 |
| NDITLAVYTSAQ [EGO2 C-terminal 12 aa] |  |  | 0.6895 ± 0.00082 | 0.651 ± 0.021 |
| KRKFLGEHRKTL [TOK1 C-terminal 12 aa] |  |  | 0.713 ± 0.01 | 0.67338 ± 0.00061 |
| QLIDIAKKMGIL [BIR1 C-terminal 12 aa] |  |  | 0.678 ± 0.051 | 0.276 ± 0.0083 |
| VSLKKGKLKAHC [YAP7 C-terminal 12 aa] |  |  | 0.673 ± 0.016 | 0.692 ± 0.019 |
| KHKSSSYANRDS [DUS3 C-terminal 12 aa] |  |  | 0.6941 ± 0.00079 | 0.693 ± 0.026 |
| GNISLLYSQGRL [RSC6 C-terminal 12 aa] |  |  | 0.723 ± 0.013 | 0.714 ± 0.053 |
| PVTPAVSKRYQP [YER084W C-terminal 12 aa] |  |  | 0.715 ± 0.0072 | 0.6939 ± 0.003 |
| SVPKPSQARFSV [UTR1 C-terminal 12 aa] |  |  | 0.684 ± 0.025 | 0.703 ± 0.025 |
| VASSTEQLLQEM [DYN1 C-terminal 12 aa] |  |  | 0.67372 ± 0.00052 | 0.693 ± 0.029 |
| TASQLLEVQSKS [YGL039W C-terminal 12 aa] |  |  | 0.68 ± 0.023 | 0.6694 ± 0.006 |
| EPRYNDDAQVSD [KCS1 C-terminal 12 aa] |  |  | 0.684 ± 0.018 | 0.663 ± 0.064 |
| LNEKESTKLFYR [ELP6 C-terminal 12 aa] |  |  | 0.6871 ± 0.002 | 0.701 ± 0.013 |
| KVHQGKYNGPGL [AI2 C-terminal 12 aa] |  |  | 0.69085 ± 0.00022 | 0.727 ± 0.037 |
